In publication PMC2853223 (ACS chemical biology, 2009):

Test: SPR affinity of His-tagged PikAIII ACPdd for nickel-NTA sensor chip
Assay type: binding
Settings: BIAcore 3000, nickel-loaded NTA sensor chip, HBS-P+E pH 7.4

Kd: 4 ± 0.04 nM
B1: His-tagged PikAIII ACPdd: C-terminal (ACP-side) docking domain of PikAIII, pikromycin PKS (protein)
chain: LAPAEPAPTDWEGRVRRALAELPLDRLRDAGVLDTVLRLTGIEPEPGSGGSDGGAADPGAEPEASIDDLDAEALIRMALGPRNT
modifications: left off: His6, N-terminal, kept
